# Results from patent publication EP4545563A1, “ANTIBODIES TARGETING ITGA2 AND ANTIBODY-DRUG […]” (Foreseen Technology (Beijing) Co., Ltd., priority 2022, dated 2024).
# B1: Vatelizumab-ve-MMAE: antibody-drug conjugate of the positive control antibody Vatelizumab with vc-MMAE as the linker-payload (conjugate, chains of the INN, looked up)
# VH: QVQLQESGPGLVKPSETLSLTCTVSGFSLTNYGIHWIRQPPGKGLEWLGVIWARGFTNYNSALMSRLTISKDNSKNQVSLKLSSVTAADTAVYYCARANDGVYYAMDYWGQGTLVTVSS
# VL: DFVMTQSPAFLSVTPGEKVTITCSAQSSVNYIHWYQQKPDQAPKKLIYDTSKLASGVPSRFSGSGSGTDYTFTISSLEAEDAATYYCQQWTTNPLTFGQGTKVEIK
# modifications: vc-MMAE payload
# Key:
# [1] = tested on: HuCC-T1; test: ADC cancer cell killing, Cell-Titer-Glo 2.0; format: cell-based, human
# Method: (§1) Human bile duct cancer cells HuCC-T1 available from Zhejiang MeisenCTCC, human epidermal cancer cells A431 available from Procell Life Science&Technology Co.,Ltd. (Wuhan) and Chinese hamster ovary cells CHO from negative control ATCC were seeded into a 96-well plate at 2500 cells/well. It was then incubated in a 5% CO2 incubator overnight at 37°C. Half of the medium was removed from the cell plate on the next day. A 2x hIgG1 (negative control antibody, provided by Biointron), Vatelizumab, FS002-A1-vc-MMAE, FS002-A15-vc-MMAE, FS002-A36-vc-MMAE, Vatelizumab-ve-MMAE, hIgG1-vcMMAE (negative control ADC, provided by ChemPartner) was prepared with a complete culture medium, and then diluted at a 3-fold gradient with 11 specific concentration points in total. Serial dilutions of the above molecules were added to the appropriate wells, and it was then incubated in a 5% CO2 incubator for 5 days at 37°C. After the incubation, 100 uL of Cell-Titer-Glo 2.0 reagent was added to the 96-well plate. It was then well mixed on a plate shaker for 2 minutes, and finally equilibrated at room temperature for 10 minutes. Readings were taken using a microplate reader. Finally, IC50 was used to compare the biological activity of the ADC against each cell line.
# [2] = tested on: A431; test: ADC cancer cell killing, Cell-Titer-Glo 2.0; format: cell-based, human
# Method: as §1
# [3] = tested on: CHO; test: ADC cell killing in negative control cells, Cell-Titer-Glo 2.0; format: cell-based, Chinese hamster
# Method: as §1
# [4] = result in words, summary of Table 9
molecule,measurement,setting,value
B1,IC50,"[1]; Human bile duct cancer cells HuCC-T1, incubated 5 days at 37°C",0.89 nM
same,killing effect on HuCC-T1,[1]; [4],good killing effect
same,IC50,"[2]; human epidermal cancer cells A431, incubated 5 days at 37°C",0.08 nM
same,killing effect on A431,[2]; [4],good killing effect
same,IC50,"[3]; negative control cells CHO, incubated 5 days at 37°C",> 207 nM
same,killing effect on negative control cells CHO,[3]; [4],no killing effect
